To fix the notation:
B1: untagged WT (pSG5) [not stated] / VPS36 precipitated with HA beads (Fig. 4c) [not stated] (parent)
chain 1: MGNGLSDQTSILSNLPSFQSFHIVILGLDCAGKTTVLYRLQFNEFVNTVPTKGFNTEKIKVTLGNSKTVTFHFWDVGGQEKLRPLWKSYTRCTDGIVFVVDSVDVERMEEAKTELHKITRISENQGVPVLIVANKQDLRNSLSLSEIEKLLAMGELSSSTPWHLQPTCAIIGDGLKEGLEKLHDMIIKRRKMLRQQKKKR
chain 2: MDRFVWTSGLLEINETLVIQQRGVRIYDGEEKIKFDAGTLLLSTHRLIWRDQKNHECCMAILLSQIVFIEEQAAGIGKSAKIVVHLHPAPPNKEPGPFQSSKNSYIKLSFKEHGQIEFYRRLSEEMTQRRWENMPVSQSLQTNRGPQPGRIRAVGIVGIERKLEEKRKETDKNISEAFEDLSKLMIKAKEMVELSKSIANKIKDKQGDITEDETIRFKSYLLSMGIANPVTRETYGSGTQYHMQLAKQLAGILQVPLEERGGIMSLTEVYCLVNRARGMELLSPEDLVNACKMLEALKLPLRLRVFDSGVMVIELQSHKEEEMVASALETVSEKGSLTSEEFAKLVGMSVLLAKERLLLAEKMGHLCRDDSVEGLRFYPNLFMTQS

The test covers variants of B1. Briefly: co-immunoprecipitation (HA beads) with densitometric quantification. As to conditions: with VPS36 precipitated with HA beads (Fig. 4c); HeLa cell lysates; parent: 1; read off a plot.
As to chain 1 MGNGLSDQTSILSNLPSFQSFHIVILGLDCAGKTTVLYRLQFNEFVNTVPNKGFNTEKIKVTLGNSKTVTFHFWDVGGQEKLRPLWKSYTRCTDGIVFVVDSVDVERMEEAKTELHKITRISENQGVPVLIVANKQDLRNSLSLSEIEKLLAMGELSSSTPWHLQPTCAIIGDGLKEGLEKLHDMIIKRRKMLRQQKKKR [chain 1 T51N], the ratio to parent worked out at 2.6.

Turning to chain 1 MGNGLSDQTSILSNLPSFQSFHIVILGLDCAGKTTVLYRLQFNEFVNTVPTKGFNTEKIKVTLGNSKTVTFHFWDVGGLEKLRPLWKSYTRCTDGIVFVVDSVDVERMEEAKTELHKITRISENQGVPVLIVANKQDLRNSLSLSEIEKLLAMGELSSSTPWHLQPTCAIIGDGLKEGLEKLHDMIIKRRKMLRQQKKKR [chain 1 Q79L], the ratio to parent was 1.4.

(Values after paper PMC10687025, “Endosomal Arl4A attenuates EGFR degradation by binding to the ESCRT-II component VPS36” (Nature Communications, 2023).)
